# Laboratory results reported in patent publication US20140024806A1.
# Square brackets hold non-standard residues; d marks the D form. Ends that are not written are not given here. Hyp = O=C(O)[C@@H]1C[C@@H](O)CN1
# Assays:
# [1] = molecular target: growth hormone receptor (GHR) on NIH 3T3-L1 cells (Mus musculus (Mouse)) (UniProt P16882); experiment: radioreceptor competition assay, [125I]-hGH on GHR-expressing NIH 3T3-L1 cell monolayers
# [2] = molecular target: anti-hGH-(SO)10 antibodies (1:10,000 serum dilution); experiment: competition ELISA, hGH-(SO)10-coated plates, serum 1:10,000, 100 ug/ml (SO)10 as competitive inhibitor
# UniProt P16882, sequence (P16882 25-650 limits assumed, form in doubt): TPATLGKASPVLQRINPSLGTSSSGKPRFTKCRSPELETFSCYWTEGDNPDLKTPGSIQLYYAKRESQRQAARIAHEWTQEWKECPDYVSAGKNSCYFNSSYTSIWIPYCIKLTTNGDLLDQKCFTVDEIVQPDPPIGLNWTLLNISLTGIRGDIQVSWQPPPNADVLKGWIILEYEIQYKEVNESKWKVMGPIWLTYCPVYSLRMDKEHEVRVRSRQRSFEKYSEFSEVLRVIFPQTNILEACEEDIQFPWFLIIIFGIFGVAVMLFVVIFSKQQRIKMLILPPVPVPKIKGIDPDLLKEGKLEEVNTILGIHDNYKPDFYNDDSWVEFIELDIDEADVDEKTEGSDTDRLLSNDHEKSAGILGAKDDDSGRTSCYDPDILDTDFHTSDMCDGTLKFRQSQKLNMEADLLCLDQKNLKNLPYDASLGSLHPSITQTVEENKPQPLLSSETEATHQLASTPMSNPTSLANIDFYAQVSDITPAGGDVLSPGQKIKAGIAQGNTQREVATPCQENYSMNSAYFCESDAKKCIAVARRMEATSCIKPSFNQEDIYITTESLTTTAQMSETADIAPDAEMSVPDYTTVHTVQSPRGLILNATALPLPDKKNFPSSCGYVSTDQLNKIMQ
Molecule,EC50 [1] [nM],percent inhibition [2] [%]
"hGH-(SO)10-EGFP fusion glycoprotein (human growth hormone, (Ser-Hyp)10, enhanced green fluorescent protein) (ligand)",10,
"S[Hyp]S[Hyp]S[Hyp]S[Hyp]S[Hyp]S[Hyp]S[Hyp]S[Hyp]S[Hyp]S[Hyp] (also: O-glycosylated, sites not given here) [purified (SO)10 glycomodule]",,5
